Usually Km stands for the substrate concentration at which the rate is half of its maximum.

Results on one protein are retold here after PMC5940811, “The lactose operon from Lactobacillus casei is involved in the transport and metabolism of the human milk oligosaccharide core-2 N-acetyllactosamine” (Scientific Reports, 2018).

Substrate in this data set: O=[N+]([O-])c1ccccc1O[C@@H]1O[C@H](COP(=O)(O)O)[C@H](O)[C@H](O)[C@H]1O
Kind of data set: purified protein. Format: biochemical, Lacticaseibacillus casei. The settings on record: activity assay in 100 mM Tris-HCl pH 7.0, 37 °C, kinetics as in cited earlier work.

B1: phospho-β-galactosidase LacG; 6x(His)LacG (Lacticaseibacillus casei BL23) (protein)
chain: MSKQLPQDFVMGGATAAYQVEGATKEDGKGRVLWDDFLDKQGRFKPDPAADFYHRYDEDLALAEKYGHQVIRVSIAWSRIFPDGAGEVEPRGVAFYHKLFADCAAHHIEPFVTLHHFDTPERLHEAGDWLSQEMLDDFVAYAKFCFEEFSEVKYWITINEPTSMAVQQYTSGTFPPAESGRFDKTFQAEHNQMVAHARIVNLYKSMQLGGQIGIVHALQTVYPYSDSAVDHHAAELQDALENRLYLDGTLAGEYHQETLALVKEILDANHQPMFQSTPQEMKAIDEAAHQLDFVGVNNYFSKWLRAYHGKSETIHNGDGTKGSSVARLQGVGEEKLPDGIETTDWDWSIYPRGMYDILMRIHNDYPLVPVTYVTENGIGLKESLPENATPDTVIEDPKRIDYVKKYLSAMADAIHDGANVKGYFIWSLQDQFSWTNGYSKRYGLFFVDFPTQNRYIKQSAEWFKSVSETHIIPD
notes: full coding region in pQE80 (BamHI/PstI), 6xHis tag (N-terminal by vector), E. coli BE50 host, purified; 55 kDa, calculated tagged mass 55,305 Da
As to B1, the Km is 3.0 mM.
